According to patent publication US20190077860A1 (EISAI R AND D MANAGEMENT, published 2019):

Molecular target: T1, human EphA4 extracellular region-SEAP-His protein (human, UniProt P54764 20-547)
T1 construct: also called hEphA4-SEAP-His
Experiment: competition ELISA, competitor human Ephrin B3-Fc
Experimental: Antibody A obtained in Example 1 was evaluated for its inhibitory activity against the binding between human EphA4 and its human ligand according to the following steps. Each well of a 96-well plate (Nunc) was coated with an anti-alkaline phosphatase antibody (Thermo Fisher Scientific). After incubation overnight at 4° C., each well was blocked with 1% BlockAce (DS Pharma Biomedical) at room temperature for 1 hour. After washing with 0.05% Tween 20/PBS (Thermo Fisher Scientific) three times, the human EphA4 extracellular region-SEAP-His protein obtained by the method of Example 1 was added (final concentration: 10 nM) to each well and incubated at room temperature for 1 hour. After washing three times, ligands and serially diluted antibody A (0, 0.003, 0.01, 0.03, 0.1, 0.3, 1, 3, 10, 30, 100, 300, 1000, and 3000 nM) or an EphA4 inhibitor KYL peptide ([…], 0, 0.003, 0.01, 0.03, 0.1, 0.3, 1, 3, 10, 30, 100, 300, 1000, and 3000 μM, its synthesis was outsourced to Toray Research Center) were added to each well. The ligands used were biotinylated human Ephrin A5-Fc chimera (R&D Systems, final concentration: 0.7 nM) and biotinylated human Ephrin B3-Fc chimera (R&D Systems, final concentration: 2.3 nM). […] The absorbance at 450 nm was read using a microplate reader (Molecular Devices or PerkinElmer). […]

T1 sequence (P54764 20-547): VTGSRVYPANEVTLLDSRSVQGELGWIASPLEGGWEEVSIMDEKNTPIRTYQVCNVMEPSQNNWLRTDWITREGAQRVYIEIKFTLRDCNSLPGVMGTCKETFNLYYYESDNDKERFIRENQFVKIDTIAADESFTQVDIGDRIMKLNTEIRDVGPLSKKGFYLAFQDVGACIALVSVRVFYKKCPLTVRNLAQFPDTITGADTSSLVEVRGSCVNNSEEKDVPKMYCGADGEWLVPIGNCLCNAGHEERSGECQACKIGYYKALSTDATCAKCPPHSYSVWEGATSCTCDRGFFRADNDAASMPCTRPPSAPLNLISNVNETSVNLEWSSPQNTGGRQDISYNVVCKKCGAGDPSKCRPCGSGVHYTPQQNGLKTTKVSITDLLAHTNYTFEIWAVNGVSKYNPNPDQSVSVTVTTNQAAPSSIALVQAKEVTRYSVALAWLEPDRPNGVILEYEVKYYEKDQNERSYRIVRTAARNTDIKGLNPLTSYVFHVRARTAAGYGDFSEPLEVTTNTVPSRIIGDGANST

IC50: ~1.9 nM
B1: antibody A (antibody, mouse IgG1, kappa, V domains shown)
VH: QIQLVQSGPELKKPGETVKISCKASGYTFTDYSMHWVKQAPGKGLKWMGWINTETGEPTYADDFKGRFAFSLETSASTAYLQINNLKNEDTATYFCARIPLYYYGSRYWYFDVWGAGTTVTVSS
VL: DIQMTQSPASLSVSVGETVTITCRASENIYRNLAWYQQKQGKSPQLLVYAATNLADGVPSRFSGSGSGTQYSLKINSLQSEDFGSYYCQHFWGTPWTFGGGTKLEIKR
notes: mouse IgG1 heavy chain, kappa light chain; purified from hybridoma supernatant; also called anti-EphA4 monoclonal antibody; antibody A-IgG
